Data taken from the supplement of paper PMC10567573.
± gives the standard deviation.

Assay: protein stability index of a GFP-peptide fusion (GPS, HEK-293T) (PSI 1-6); higher = more stable
[1] = treatment: DMSO, c terminus: a fixed tail appended
[2] = treatment: MLN4924 1 uM, 8 h, c terminus: a fixed tail appended
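Also: 24-mer peptide tiles fused after GFP, lentivirally expressed, FACS-sorted into six equal bins by GFP/DsRed ratio, decoded by Illumina sequencing, PSI is the read-weighted mean bin number.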

Sequence | protein stability index [1] | protein stability index [2] | protein stability index (treatment: DMSO, c terminus: native) | protein stability index (treatment: MLN4924 1 uM, 8 h, c terminus: native)
NYSYRGYGALSSNLQPPASLQTGN [NOL4L] | 3.64 ± 0.2 | 3.8 ± 0.25 | – | –
PACHSFNRAIHKKAKGTEAEEEY [FBXO34] | – | – | 5.25 ± 0.49 | 5.41 ± 0.34
PAVTPDPWGVQGGQESEVPYKREE [PKD2L1] | 5.24 ± 0.33 | 5.49 ± 0.16 | – | –
PCPLGEPKTQACSGSESPSDSGKD [MYCL] | 5.41 ± 0.24 | 5.41 ± 0.17 | – | –
PDDRLTCSQLLESSYFDSFQEAQI [CDKL4] | 3.91 ± 0.43 | 4.08 ± 0.12 | – | –
PDLRSLFSRAGISEAQLTDAETSK [WAS] | 5.03 ± 0.28 | 5 ± 0.27 | – | –
PDVENEVKRLLRSDAEAVSTRWEV [TAF7L] | 3.24 ± 0.63 | 3.76 ± 0.65 | – | –
PELPEGHLEDWLEKRAKRLSSAPS [ZMAT5] | 4.32 ± 0.12 | 5.14 ± 0.14 | – | –
PENILLDRDGHIKLTDFGFAKKLV [PRKX] | 2.9 ± 0.17 | 3.08 ± 0.072 | – | –
PEPVYFHCAAVTPAGCMYIHGGVV [KLHDC10] | 2.53 ± 0.56 | 2.85 ± 0.71 | – | –
PEQVQNEIKSMKKRMSELCIDFNK [NLN] | 4.11 ± 0.44 | 4.23 ± 0.52 | – | –
PERSDLTLYLIVALATVSLLSLVT [PCDHGC5] | 2.02 ± 0.44 | 2.27 ± 0.56 | – | –
PFFVLNSDVICDFPFQAMVQFHRH [GMPPB] | 2.4 ± 0.67 | 2.34 ± 0.29 | – | –
PGAPGMPPGIPPLMPGVPPLMPGM [ZNF207] | 3.71 ± 0.13 | 3.62 ± 0.24 | – | –
PGYLVGRNNANGVDLNRNFPDLNT [CPN1] | 3.73 ± 0.36 | 3.67 ± 0.48 | – | –
PHKTFRKLRLFDTPHTPKSLLSKA [WEE1] | 2.82 ± 0.35 | 2.98 ± 0.41 | – | –
PHSDQRLRPQRTKQYVLLSILLCL [TMEM106C] | 2.34 ± 0.48 | 2.11 ± 0.17 | – | –
PKGGQVQIVTKKIDLSHVTSKCGS [MAP2] | 3.92 ± 0.18 | 3.91 ± 0.37 | – | –
PKKISDLDHCANRVLMYGSELDAD [TPH1] | 4.58 ± 0.083 | 4.47 ± 0.088 | – | –
PLFSNWWIQVTSLRIFVWLLLLYF [PHTF1] | 2.21 ± 0.22 | 2.5 ± 0.49 | – | –
PLRADHMVKEPVEDTDPSTLSFNM [EDARADD] | 5.1 ± 0.083 | 4.86 ± 0.46 | – | –
PMLETASKLLLSGTADGADLRTVD [ANKRD17] | 4.68 ± 0.077 | 4.67 ± 0.22 | – | –

Sequence | protein stability index [1] | protein stability index [2] | protein stability index (treatment: DMSO, c terminus: native) | protein stability index (treatment: MLN4924 1 uM, 8 h, c terminus: native)
PMVLKGKIRPDSSRPELLQPLNFV [GLT8D2] | 2.83 ± 0.2 | 3 ± 0.3 | – | –
PNKDMVVQLIDDFKISGMNGIHVC [SRPK2] | 2.38 ± 0.27 | 2.35 ± 0.25 | – | –
PNSTKNQSLPKASPVTTSPTAATT [LCOR] | 4.91 ± 0.23 | 5.03 ± 0.26 | – | –
PPELNYGATGECQNFLDPGYPLPK [ZNF449] | 4.61 ± 0.2 | 4.67 ± 0.13 | – | –
PPRGPLGQGAMFRLPTDSHFPYDL [NEUROD6] | 3.46 ± 0.18 | 3.59 ± 0.38 | – | –
PPRRGVSGDRDENSFSLNSSISSS [MAP2] | 4.84 ± 0.14 | 4.74 ± 0.24 | – | –
PPYLPLAVPEDLADRLVRVHGDPA [FUT8] | 4.22 ± 0.12 | 4.31 ± 0.28 | – | –
PQRYPACAQMLPPNLSPHAPWNYH [TRAF3IP2] | 2.31 ± 0.37 | 2.11 ± 0.25 | – | –
PQTPAAPPATLGEGSADTEDRKLP [EHMT1] | 5.44 ± 0.28 | 5.36 ± 0.35 | – | –
PRKTAAPVNALVSHLLVVEPEKLY [ESRRA] | 2.83 ± 0.22 | 2.5 ± 0.18 | – | –
PRLWTTCRDGEVLLRLSKHGPGHE [ACSBG2] | 2.4 ± 0.15 | 2.21 ± 0.17 | – | –
PSDLDLVMSEGLGMRYAFIGPLET [CRYL1] | 2.46 ± 0.63 | 2.6 ± 0.39 | – | –
PSRAPPSTQEPQSPREGEELKPED [GNAS] | 5.5 ± 0.33 | 5.5 ± 0.32 | – | –
PSSQSSSGGGRDSSSSILRWLPEK [ELOA2] | 4.15 ± 0.12 | 4.25 ± 0.1 | – | –
PSTICFGQGAARGFKSNKKKTKQC [ZNF511] | 4.14 ± 0.83 | 3.84 ± 0.068 | – | –
PTLKKCEDVARPTQRLWDFTQSGP [GALNT9] | 3.69 ± 0.24 | 4 ± 0.17 | – | –
PTPSSPLPSVPVSVPASDPRSCSS [PLEKHN1] | 5.15 ± 0.2 | 5.14 ± 0.26 | – | –
PTQKALYNDVMQENYETVISLALF [ZNF75A] | 2.57 ± 0.45 | 2.47 ± 0.37 | – | –
PTTRNYPELNNNQYNRSSNSNGGN [CDC14A] | 4.654 ± 0.022 | 4.79 ± 0.1 | – | –
PTVKDLIGGFTALHYAAMHGRARI [ASB7] | 2.56 ± 0.47 | 2.4 ± 0.43 | – | –
PVACGSVLSEGSPLTEQEESSPSH [SRPK2] | 5.52 ± 0.17 | 5.51 ± 0.17 | – | –
PVLRFDALWQVLARDCFATGRHYW [TRIM14] | 3.5 ± 0.53 | 3.21 ± 0.88 | – | –

Sequence | protein stability index [1] | protein stability index [2] | protein stability index (treatment: DMSO, c terminus: native) | protein stability index (treatment: MLN4924 1 uM, 8 h, c terminus: native)
PVQASQLEEEFDSDSGLSLDSSHS [NFE2L1] | 5.51 ± 0.11 | 5.46 ± 0.22 | – | –
PYIQLPSHSNITGIVEVILGETKA [TRIB1] | 2.63 ± 0.48 | 2.67 ± 0.52 | – | –
PYLLGPDKNLTEREVFNEIYPVWT [SLC19A2] | 2.35 ± 0.24 | 2.71 ± 0.26 | – | –
QAFLDELESSDLPVALLLAQHKDR [MNAT1] | 3.53 ± 0.13 | 3.49 ± 0.21 | – | –
QALMLPPGSFWGLCQVAQEALASA [VENTX] | 2.04 ± 0.25 | 2.18 ± 0.42 | – | –
QAQGQLRELLDRAMREAIQSYPSQ [SOAT2] | 3.01 ± 0.31 | 3.11 ± 0.31 | – | –
QAQKCYRDLALVSRDGMNIVLNKI [INTS3] | 2.29 ± 0.23 | 2.61 ± 0.44 | – | –
QCAVLIYTSGTTGIPKGVMLSHDN [ACSBG2] | 2.65 ± 0.51 | 2.58 ± 0.72 | – | –
QDFAKDLLKTLYNSIKNEKLEWAI [PSD2] | 2.32 ± 0.47 | 2.23 ± 0.25 | – | –
QEAVPLGLGLEDADWTQGLPWRFE [TEX19] | 3.34 ± 0.21 | 3.34 ± 0.3 | – | –
QEITEQQDIAQEISEAFSQRVGFG [CHMP4C] | 5.02 ± 0.14 | 4.77 ± 0.38 | – | –
QELCEGLLEESDGEGEPGQGEGPE [NOP53] | 5.6 ± 0.14 | 5.56 ± 0.11 | – | –
QEMVVSSLVIGALLASLTGGVLID [SLC2A12] | 3.61 ± 0.39 | 3.45 ± 0.73 | – | –
QENYLEYRQVPGSDPARYEFLWGP [MAGEA10] | 3.28 ± 0.27 | 3.54 ± 0.32 | – | –
QEYNIPGVIQSVIGWKTVRMYPFQ [CDS2] | 2.45 ± 0.67 | 2.42 ± 0.3 | – | –
QFAISRELIRNIYNSFHKLRDRAE [SNX8] | 2.19 ± 0.13 | 2.23 ± 0.21 | – | –
QGDSSQQSLKGHLRNNFQKQLLSN [ZC2HC1C] | 3.31 ± 0.27 | 3.88 ± 0.16 | – | –
QGELADQDVDPVHNLIEQVSLGLG [FBXO33] | 4.55 ± 0.27 | 4.66 ± 0.072 | – | –
QHHEALSLFCYEDQEAVCLICAIS [TRIM39] | 2.26 ± 0.23 | 2.35 ± 0.18 | – | –
QIGFSVGLGNIWRFPYLCQKNGGG [SLC6A17] | 2.02 ± 0.37 | 1.9 ± 0.33 | – | –
QILGQTLKASMRELGLLIFFLFIG [KCNA1] | 2.67 ± 0.67 | 2.45 ± 0.51 | – | –
